Measurements taken from paper PMC3977201.

Molecular target: APOBEC3G labeled with EGFP (A3G-EGFP), wild type (human), Q9HC16
Assay: fluorescence fluctuation spectroscopy
Conditions: remark: other sources report otherwise

B1: APOBEC3G labeled with EGFP (A3G-EGFP), wild type, Q9HC16 1-384 (natural protein)
chain: MKPHFRNTVERMYRDTFSYNFYNRPILSRRNTVWLCYEVKTKGPSRPPLDAKIFRGQVYSELKYHPEMRFFHWFSKWRKLHRDQEYEVTWYISWSPCTKCTRDMATFLAEDPKVTLTIFVARLYYFWDPDYQEALRSLCQKRDGPRATMKIMNYDEFQHCWSKFVYSQRELFEPWNNLPKYYILLHIMLGEILRHSMDPPTFTFNFNNEPWVRGRHETYLCYEVERMHNDTWVLLNQRRGFLCNQAPHKHGFLEGRHAELCFLDVIPFWKLDLDQDYRVTCFTSWSPCFSCAQEMAKFISKNKHVSLCIFTARIYDDQGRCQEGLRTLAEAGAKISIMTYSEFKHCWDTFVDHQGCPFQPWDGLDEHSQDLSGRLRAILQNQEN
With B1 the normalized brightness at 1 uM was 10.
